# Reference: US6699677B1, “Tethered ligands and methods of use” (ChemoCentryx, Inc., priority 1999, dated 2004)
# Legend:
# CCR10 [1] = target: T1, CCR10 (Homo sapiens, UniProt Q9NPB9); assay: Spectrum of ligands that bind to CCR10; format: binding; parameters: Full length CCR10 expression constructs were made in pIRESpuro expression vector; expressed in transfected cells; HEK293-CCR10)
# T1 sequence (Q9NPB9 1-350): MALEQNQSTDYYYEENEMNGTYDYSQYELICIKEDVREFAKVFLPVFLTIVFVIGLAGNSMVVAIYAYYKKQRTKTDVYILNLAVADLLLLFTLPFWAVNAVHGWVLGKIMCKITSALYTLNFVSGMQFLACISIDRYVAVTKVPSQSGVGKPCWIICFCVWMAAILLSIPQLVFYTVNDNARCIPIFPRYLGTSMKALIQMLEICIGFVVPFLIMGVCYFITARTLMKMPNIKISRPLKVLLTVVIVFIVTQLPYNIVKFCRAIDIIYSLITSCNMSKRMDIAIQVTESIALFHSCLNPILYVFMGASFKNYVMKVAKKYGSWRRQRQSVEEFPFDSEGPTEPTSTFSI
# From the text: (§1) Furthermore ELC-SK mediated adhesion was abolished in the presence of soluble native ELC as a competitor (FIG. 3A, top row). […] Moreover, radiolabeled ELC was used in a traditional homologous competition assay in the presence of increasing concentrations of unlabeled ELC. […] Taken together, the stalkokine-based adhesion and radiolabeled ligand binding/homologous competition assays indicate that CCR10 is a new chemokine receptor that bound a novel compliment of chemokines.
# wild type HEK293 cells = assay: Homologous competition binding of radiolabeled ELC on wild type HEK293 cells; parameters: species or system human; conditions: wildtype (wt) HEK293 cells
# From the text: as §1
# CCR7 = target: T2, CCR7 (Homo sapiens, UniProt P32248); assay: Binding of CCR7-NSO cells to immobilized stalkokines
# T2 construct: host or cells: mouse myeloma NSO
# T2 sequence (P32248 25-378): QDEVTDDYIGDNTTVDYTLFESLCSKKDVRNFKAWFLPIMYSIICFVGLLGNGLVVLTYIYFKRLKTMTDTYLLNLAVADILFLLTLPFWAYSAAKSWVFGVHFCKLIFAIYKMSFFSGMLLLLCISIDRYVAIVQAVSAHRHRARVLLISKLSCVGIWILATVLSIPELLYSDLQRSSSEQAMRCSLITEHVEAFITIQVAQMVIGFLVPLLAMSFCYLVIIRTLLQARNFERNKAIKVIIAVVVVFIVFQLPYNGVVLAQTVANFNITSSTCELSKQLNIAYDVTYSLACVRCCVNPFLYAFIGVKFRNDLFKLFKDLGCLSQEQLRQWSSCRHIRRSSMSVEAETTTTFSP
# Procedure: (§2) In one set of experiments, five 8 well chamber slides (Lab-Tek II, Nalge Nunc International, Rochester, N.Y.), 250 ul of 10 ug/ml anti-his antibody (R&D Systems, Minneapolis, Minn.) in PBS was added to each well and incubated at room temperature overnight (typically 16 hours). Following, the liquid in each well was aspirated and washed once for approximately 5 minutes with 500 ul of PBS. The wells were then “blocked” (blocked for any additional protein binding sites) with the addition of 250 ul of blocking solution (2% fetal bovine serum, 0.5% BSA in PBS) and incubation for 1 hour at room temp (e.g., 20° C.). The liquid in each well was aspirated and 250 ul of supernatant containing the chemokine-stalk-immobilization domain fusion proteins (SDF1a-FRAC, finetaxin-FRAC, CCL27-FRAC, 1309-FRAC, MIP3a-FRAC, ELC-FRAC, SLC-FRAC, MDC-FRAC, TARC-FRAC, or BRAK-FRAC) or the control supernatant was added to two wells. Each slide contained two wells with control supernatant (from mock-transfected cells) and two wells with the positive control SDF1a (which binds the ubiquitous chemokine receptor CXCR4). The four other wells were for experimental samples. The supernatants were incubated for one hour at room temperature (typically 20° C.), then incubated for an additional hour at 37° C. […] The slide was then ready for addition of cells for assay. […]
# CCR10 [2] = target: T1, CCR10; assay: Binding of CCR10-NSO cells to immobilized stalkokines; parameters: expressed in transfected cells; host or cells: not clear (NSO per the earlier reading)
# Procedure: as §2
# CCR10 [3] = target: T1, CCR10; assay: Homologous competition binding of radiolabeled chemokine on HEK293-CCR10 cells; parameters: Full length CCR10 expression constructs were made in pIRESpuro expression vector; expressed in transfected cells; HEK293-CCR10)
# From the text: Human, viral and murine recombinant chemokines were obtained from R&D Systems (Minneapolis, Minn.; http://cytokine.rndsystems.com/cyt_cat/cyt_cat.html). ^125I-labeled ELC and TECK were obtained from Amersham. Full length CCR10 expression constructs were made in pIRESpuro expression vector (Clontech, Palo Alto, Calif.) with a FLAG epitope tag and prolactin signal sequence, and used to generated stable transfectants in HEK293 cells. Transient and stable transfections for CCR10 and stalkokines were done using Superfect reagent (Qiagen, Valencia, Calif.) following manufacturer's protocol. Stably-transfected cells were generated by selection in 2 ug/mL puromycin for 7 days, and expression was confirmed by FACS analysis of the FLAG epitope using anti-FLAG M1 (Sigma, St. Louis, Mo.) and 2′ anti-mouse PE conjugate (Coulter Immunotech, Miami, Fla.).
# as §1
Substance,Affinity of binding to CCR10 (CCR10 [1]),Binding of radiolabeled ELC in homologous competition with unlabeled ELC (wild type HEK293 cells),Binding to Stalkokine form (CCR7),Binding to Stalkokine form (CCR10 [2]),Binding of radiolabeled chemokine in homologous competition with cold chemokine (CCR10 [3])
BLC: chemokine,lower affinity,–,–,–,–
"ELC: EBl1 ligand chemokine, soluble recombinant native form",high affinity,not,yes,yes,significant binding
